For series [1], the target named is T1, NIN(520-878)-myc (C-ter) (Lotus japonicus) (UniProt Q9S7B1).
T1 sequence: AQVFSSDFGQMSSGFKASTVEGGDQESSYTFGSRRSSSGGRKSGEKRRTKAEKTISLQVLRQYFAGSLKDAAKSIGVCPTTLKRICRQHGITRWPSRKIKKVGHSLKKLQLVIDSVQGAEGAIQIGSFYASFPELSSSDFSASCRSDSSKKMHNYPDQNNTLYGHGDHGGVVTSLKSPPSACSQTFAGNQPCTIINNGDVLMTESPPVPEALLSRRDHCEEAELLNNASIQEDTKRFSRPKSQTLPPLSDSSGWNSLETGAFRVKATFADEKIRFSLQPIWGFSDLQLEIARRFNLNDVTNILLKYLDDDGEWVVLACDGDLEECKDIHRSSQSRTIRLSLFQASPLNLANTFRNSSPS
As to the kind of experiment: EMSA. As to conditions: 20 mM Hepes-KOH pH 7.9, 50 mM KCl, 1 mM MgCl2, 1 mM DTT, 4% glycerol, 0.1% Triton X-100, 2 ug BSA, 400 ng dIdC, 20 ul, 30 min at room temperature; 10-30 fmol …. Background: In EMSA bound probe runs differently from free probe, usually more slowly.

The target in series [2] is T2, NIN-myc (Full) (Lotus japonicus) (UniProt Q9S7B1).
T2 sequence: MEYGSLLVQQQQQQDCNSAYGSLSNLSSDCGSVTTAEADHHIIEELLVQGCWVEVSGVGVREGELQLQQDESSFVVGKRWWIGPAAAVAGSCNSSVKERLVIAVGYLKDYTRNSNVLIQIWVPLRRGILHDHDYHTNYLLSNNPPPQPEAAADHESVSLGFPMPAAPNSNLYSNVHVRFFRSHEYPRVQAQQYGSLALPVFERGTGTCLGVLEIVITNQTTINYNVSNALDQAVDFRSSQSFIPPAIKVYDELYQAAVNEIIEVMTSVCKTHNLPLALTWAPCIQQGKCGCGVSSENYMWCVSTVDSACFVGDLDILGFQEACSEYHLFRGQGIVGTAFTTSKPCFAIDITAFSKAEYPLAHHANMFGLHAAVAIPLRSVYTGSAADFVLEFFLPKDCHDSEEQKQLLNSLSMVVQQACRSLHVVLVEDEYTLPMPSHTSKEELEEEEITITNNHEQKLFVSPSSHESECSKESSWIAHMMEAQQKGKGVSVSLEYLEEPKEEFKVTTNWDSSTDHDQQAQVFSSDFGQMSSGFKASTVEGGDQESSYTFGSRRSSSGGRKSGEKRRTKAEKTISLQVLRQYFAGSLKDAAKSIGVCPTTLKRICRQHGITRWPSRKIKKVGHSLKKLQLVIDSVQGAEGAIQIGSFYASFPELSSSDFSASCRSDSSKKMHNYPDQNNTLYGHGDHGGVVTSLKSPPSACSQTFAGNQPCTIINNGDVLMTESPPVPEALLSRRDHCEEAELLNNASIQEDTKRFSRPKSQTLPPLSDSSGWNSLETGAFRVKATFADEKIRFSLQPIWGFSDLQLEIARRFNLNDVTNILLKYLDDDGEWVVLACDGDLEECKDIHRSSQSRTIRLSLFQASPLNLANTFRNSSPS
Description: EMSA. As to conditions: 20 mM Hepes-KOH pH 7.9, 50 mM KCl, 1 mM MgCl2, 1 mM DTT, 4% glycerol, 0.1% Triton X-100, 2 ug BSA, 400 ng dIdC, 20 ul, 30 min at room temperature; 10-30 fmol ….

The target in a further series is NIN(520-878)-myc (C-ter) (Lotus japonicus, UniProt Q9S7B1 520-878). As to the kind of experiment: EMSA; 20 mM Hepes-KOH pH 7.9, 50 mM KCl, 1 mM MgCl2, 1 mM DTT, 4% glycerol, 0.1% Triton X-100, 2 ug BSA, 400 ng dIdC, 20 ul, 30 min at room temperature; 10-30 fmol 32P probe. As to conditions: protein: ivt, tags: myc.

This note sets out measurements from article PMC3605141, “NODULE INCEPTION Directly Targets NF-Y Subunit Genes to Regulate Essential Processes of Root Nodule Development in Lotus japonicus”.

As for “GGCCTTTGAGGCCGCTCAAAAGAGTGAAGATGAATATGAAAT (double strand) [LjNF-YB1 probe 12]”, the binding result in series [1] is reported as “no binding”.
On the same count and under the same terms, the result for “TCTTTTGAGCGGCCTCAAAGGCCTTCTCAGCATCCATTAAC (double strand) [LjNF-YB1 probe 11]” reads “no binding”.
On the same count and under the same terms, the result for “TACAATTCTTTACTTTCAATACAAAAAACCCCATCAATTTACTTGTATCTTTAG (double strand) [LjNF-YB1 probe 15]” reads “no binding”.
As for “GTTAATGGATGCTGAGAAGGCCTTTGAGGCCGCTCAAAAGAGTGAAGATGAATATGAAATATCCCTTGGAAAGCTCTAAAG (double strand) [LjNF-YB1 probe 9]”, the binding result in series [2] and in series [1] was “binds” in each case.
As to “GAGAAAATGCTAGTTTTTAAAAAGAGAACCTTTATTTTTTTAAATATTGTATTTACGAAGAAAACTGAAAAAGAACAGATGATTTCAGTTAGATTGCTTGGCCCCCTTCTTATCTGGACAGGCATTTTCCTG (double strand) [LjNF-YA1 probe 9]”, the binding entry in series [2] and in series [1] was “binds” in each case.
Turning to “AAAGAGTGAAGATGAATATGAAATATCCCTTGGAAAGCTCTAAAG (double strand) [LjNF-YB1 probe 13]”, the binding entry in series [1] is on record as “no binding”.
Regarding “TCACTTTGGTGGATGTGGATATACAATTCTTTACTTTCAATACAAAAAACCCCATCAATTTACTTGTATCTTTAGAGCTTTCCAAGGGATATTTC (double strand) [LjNF-YB1 probe 10]”, the binding result in series [2] and in series [1] was “binds” each time.
Consider “TCACTTTGGTGGATGTGGATATACAATTCTTTACTTTCAATACAAAAAACC (double strand) [LjNF-YB1 probe 16]”, for which, in series [1], the binding entry is “no binding”.

B1: NBS-yB1a m13 (dsDNA)
DNA 1: TACTTGTATCTTTAGAGCTTTCCAACCCATATTTC
DNA 2: GAAATATGGGTTGGAAAGCTCTAAAGATACAAGTA
In the case of B1, in the series with NIN(520-878)-myc (C-ter) (label: 32P), the binding result was “no binding”.

B2: NBS-yB1a m8 (dsDNA)
DNA 1: TACTTGTATCAAAAGAGCTTTCCAAGGGATATTTC
DNA 2: GAAATATCCCTTGGAAAGCTCTTTTGATACAAGTA
As to B2, the binding result with NIN(520-878)-myc (C-ter) (label: 32P) is “no binding”.

B3: probe 14 m5 (dsDNA)
DNA 1: AAACCCCATCAATTTACTTGTATCTTTAGAGCTTTCCAACCCTATTTTC
DNA 2: GAAAATAGGGTTGGAAAGCTCTAAAGATACAAGTAAATTGATGGGGTTT
On to B3, for which the binding result with NIN(520-878)-myc (C-ter) (label: 32P) is listed as “no binding”.

B4: NBS-yB1a m14 (dsDNA)
DNA 1: TACTTGTATCTTTAGAGCTTTCCAAGGGTATTTTC
DNA 2: GAAAATACCCTTGGAAAGCTCTAAAGATACAAGTA
With B4, in the series with NIN(520-878)-myc (C-ter) (label: 32P), the binding result is on record as “no binding”.

B5: NBS-yB1a m12 (dsDNA)
DNA 1: TACTTGTATCTTTAGAGCTTTCGTTGGGATATTTC
DNA 2: GAAATATCCCAACGAAAGCTCTAAAGATACAAGTA
On to B5, for which the binding result with NIN(520-878)-myc (C-ter) (label: 32P as probe) is on record as “no binding”.

B6: probe 14 m3 (dsDNA)
DNA 1: AAACCCCATCAATTTACTTGTTAGAAAAGAGCTTTCCAAGGGATATTTC
DNA 2: GAAATATCCCTTGGAAAGCTCTTTTCTAACAAGTAAATTGATGGGGTTT
Take B6: in the series with NIN(520-878)-myc (C-ter) (label: 32P), the binding result is “no binding”.
